We go through three molecules from patent US9988424 (DUKE UNIVERSITY, dated 2018).

The target of one assay is AE.con gp140CF. Put plainly: ELISA, OD405 at 10 ug/ml. For orientation: An ELISA detects its analyte on a solid surface through an enzyme-linked reagent.
Another assay addresses B.040 gp140C. Put plainly: ELISA, OD405 at 10 ug/ml.
The next assay concerns the target T1, B.62357 gp140C.
T1 construct: also called B.62357 140C
Description: ELISA, OD405 at 10 ug/ml.

The next assay has as its target B.con gp140CF. Description: ELISA, OD405 at 10 ug/ml.
In the next assay the target is T2, C.1086 gp140.
T2 construct: also called C.1086gp140C
Description: ELISA, OD405 at 10 ug/ml.

The next assay has as its target Con 6 gp120. Put plainly: ELISA, OD405 at 10 ug/ml.
A further assay has as its target G.con gp140CF. Put plainly: ELISA, OD405 at 10 ug/ml.
For the next assay, the target named is T3, A.9004SS V1/V2 tags.
T3 V1V2 tags construct: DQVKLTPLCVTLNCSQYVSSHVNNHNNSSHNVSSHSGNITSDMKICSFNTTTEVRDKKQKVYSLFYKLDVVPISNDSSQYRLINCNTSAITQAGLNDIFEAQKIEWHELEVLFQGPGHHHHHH
Description: ELISA, OD405 at 10 ug/ml.

For the next assay, the target named is C.1086 V1V2 Tags (HIV-1). Description: ELISA, OD405 at 10 ug/ml.
The target of the next assay is T4, gp70 C.1086 V1/V2 (HIV-1 V1V2 on murine leukemia virus gp70).
T4 construct: also called C.gp70 1086C V1V2; C.1086gp70V1V2
T4 chain: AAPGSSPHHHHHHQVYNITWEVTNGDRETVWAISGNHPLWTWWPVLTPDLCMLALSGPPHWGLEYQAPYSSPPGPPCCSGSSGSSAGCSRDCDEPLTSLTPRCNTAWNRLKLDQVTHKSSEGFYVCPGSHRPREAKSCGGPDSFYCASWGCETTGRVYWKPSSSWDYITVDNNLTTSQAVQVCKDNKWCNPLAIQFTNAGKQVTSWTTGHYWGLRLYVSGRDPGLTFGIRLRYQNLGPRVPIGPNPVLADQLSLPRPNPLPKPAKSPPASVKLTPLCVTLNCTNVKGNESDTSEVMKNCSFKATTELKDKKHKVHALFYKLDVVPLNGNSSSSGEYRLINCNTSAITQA
Description: ELISA, OD405 at 10 ug/ml.

A further assay has as its target T5, B.HXB/BAL gp140CFI (HIV-1, UniProt P04578 33-680).
T5 construct: also called B.HxB/Ba gp140 CFI
Put plainly: ELISA, OD405 at 10 ug/ml.

Another assay has as its target T6, SIV CPZ US-1 gp140CF (SIVcpz).
T6 construct: also called US-1 SIVCPZ gp140CF
T6 chain: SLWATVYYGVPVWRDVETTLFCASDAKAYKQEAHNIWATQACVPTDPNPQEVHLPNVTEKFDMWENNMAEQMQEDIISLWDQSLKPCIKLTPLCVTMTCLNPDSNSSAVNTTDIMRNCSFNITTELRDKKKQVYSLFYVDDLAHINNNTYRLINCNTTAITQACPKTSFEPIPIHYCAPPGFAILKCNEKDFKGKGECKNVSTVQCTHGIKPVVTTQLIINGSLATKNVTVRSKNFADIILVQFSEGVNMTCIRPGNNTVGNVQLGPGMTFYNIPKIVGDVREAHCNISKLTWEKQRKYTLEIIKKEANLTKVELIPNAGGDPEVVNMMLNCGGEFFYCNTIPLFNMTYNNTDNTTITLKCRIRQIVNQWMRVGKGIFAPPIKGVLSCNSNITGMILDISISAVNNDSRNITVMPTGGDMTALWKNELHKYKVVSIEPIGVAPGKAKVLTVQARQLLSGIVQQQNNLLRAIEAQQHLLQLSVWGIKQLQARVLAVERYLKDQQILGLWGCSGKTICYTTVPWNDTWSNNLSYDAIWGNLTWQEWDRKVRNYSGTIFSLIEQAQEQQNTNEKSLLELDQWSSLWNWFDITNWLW
Put plainly: ELISA, OD405 at 10 ug/ml.

Assay [1] concerns the target T7, gp70 B.HXB2/BALV1V2/N156QN160Q (murine leukemia virus; HIV-1).
T7 chain: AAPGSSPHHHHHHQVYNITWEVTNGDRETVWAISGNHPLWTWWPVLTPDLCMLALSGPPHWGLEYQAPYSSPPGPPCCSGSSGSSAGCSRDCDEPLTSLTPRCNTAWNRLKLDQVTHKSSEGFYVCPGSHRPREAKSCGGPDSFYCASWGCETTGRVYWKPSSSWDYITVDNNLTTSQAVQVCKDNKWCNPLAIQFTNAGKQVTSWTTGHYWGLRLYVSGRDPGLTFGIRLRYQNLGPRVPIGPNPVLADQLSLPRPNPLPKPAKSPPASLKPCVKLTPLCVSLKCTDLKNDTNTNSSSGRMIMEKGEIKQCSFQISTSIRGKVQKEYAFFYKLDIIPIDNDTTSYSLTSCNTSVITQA
Put plainly: ELISA.

Another assay addresses T8, J08 B.HXB2/BALV1V2 (HIV-1).
T8 construct: also called J08 B.HXB/BAL V1V2
T8 chain: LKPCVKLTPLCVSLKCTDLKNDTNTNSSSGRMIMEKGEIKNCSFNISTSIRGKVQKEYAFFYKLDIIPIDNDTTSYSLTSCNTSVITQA
Put plainly: ELISA.

Assay [2] concerns the target T9, J08 B.HXB2/BALV1V2N156QN160Q (HIV-1).
T9 chain: T8 chain with N41Q, N45Q
Put plainly: ELISA.

Changes are numbered by the printed parent chain.

B1: CH58 reverted unmutated ancestor antibody (antibody, V domains shown)
VH: EVQLVQSGAEVKKPGESLKISCKGSGYSFTSYWIGWVRQMPGKGLEWMGIIYPGDSDTRYSPSFQGQVTISADKSISTAYLQWSSLKASDTAMYYCARLGGRYYYDSSGYYYFDYWGQGTLVTVSS
VL: NFMLTQPHSVSESPGKTVTISCTRSSGSIASNYVQWYQQRPGSSPTTVIYEDNQRPSGVPDRFSGSIDSSSNSASLTISGLKTEDEADYYCQSYDSSSWVFGGGTKLTVL
notes: also called CH58 RUA; CH58_RUA
As for B1, the binding result with AE.con gp140CF, with B.040 gp140C, with B.62357 gp140C, with B.con gp140CF, with C.1086 gp140 and with Con 6 gp120 was “no binding (tested: 10 ug/ml)” each time. For the same molecule, the binding result with G.con gp140CF is recorded as “no binding (tested: 10 ug/ml)”.

B2: PG16 (antibody, V domains shown)
VH: QEQLVESGGGVVQPGGSLRLSCLASGFTFHKYGMHWVRQAPGKGLEWVALISDDGMRKYHSDSMWGRVTISRDNSKNTLYLQFSSLKVEDTAMFFCAREAGGPIWHDDVKYYDFNDGYYNYHYMDVWGKGTTVTVSS
VL: QSALTQPASVSGSPGQTITISCNGTSSDVGGFDSVSWYQQSPGKAPKVMVFDVSHRPSGISNRFSGSKSGNTASLTISGLHIEDEGDYFCSSLTDRSHRIFGGGTKVTVL
notes: also called mAb PG16; bnAb PG16
With B2, the binding result with A.9004SS V1/V2 tags, in the assay with C.1086 V1V2 Tags, with gp70 C.1086 V1/V2, in the assay with B.HXB/BAL gp140CFI and with SIV CPZ US-1 gp140CF was “no binding (tested: 10 ug/ml)” throughout.

B3: 697D (antibody, V domains shown)
VH: QVQLVQSGAEVKKPGSSVKVSCKASGGNFNTYTISWVRQAPGQGLEWMGRIIPIFGIVNPAQKFPGRVTINVDKSTNTAYMELSSLRSEDTAVYYCATSGVGLHFGYFDYWGQGTQVTVSS
VL: QSVLTQPPSVSGAPGQRVTISCTGSSSNIGAHYDVHWYQQLPGTAPKLLIYGNSNRPSGVPDRFSGSKSGTSASLAITGLQAEDEADYYCQSYDSSLSGYVFGTGTKVTVL
notes: also called mAb 697D; V2 conformational mAb 697D
Consider B3, for which the values for the 50% effective concentration (EC50) (in assay [1]; with J08 B.HXB2/BALV1V2; in [2]) were greater than 667 nM, 0.12 nM and 66 nM, respectively.

The EC50 is the midpoint of the concentration-response curve. Low values mean higher potency in that assay, high ones lower potency in that assay.
